Biological target: the molecule itself
Assay: non-reducing SDS-PAGE; purified enzyme, not reduced; 37 kDa and 74 kDa bands (Figure 1, lane 2)

B1: Cpl-1^C45S;D194C (enzyme, pneumococcal phage, UniProt P15057 1-339, looked up)
chain: MVKKNDLFVDVSSHNGYDITGILEQMGTTNTIIKISESTTYLNPSLSAQVEQSNPIGFYHFARFGGDVAEAEREAQFFLDNVPMQVKYLVLDYEDDPSGDAQANTNACLRFMQMIADAGYKPIYYSYKPFTHDNVDYQQILAQFPNSLWIAGYGLNDGTANFEYFPSMDGIRWWQYSSNPFDKNIVLLDDEEDCKPKTAGTWKQDSKGWWFRRNNGSFPYNKWEKIGGVWYYFDSKGYCLTSEWLKDNEKWYYLKDNGAMATGWVLVGSEWYYMDDSGAMVTGWVKYKNNWYYMTNERGNMVSNEFIKSGKGWYFMNTNGELADNPSFTKEPDGLITVA
notes: Cpl-1, pneumococcal phage lysin (endolysin); gene originally carried on plasmid pJML6; expected 37 kDa band; Purified preparation holds the 37 kDa monomer and a 74 kDa disulfide-linked dimer; construct described in Resch et al., 2011; source: E. coli DH5α, purified (DEAE-Sepharose, eluted with choline)
Q: How did the “stoichiometry N” value turn out when B1 was run?
A: The value was 2.

Source: paper PMC3222324, “PEGylating a bacteriophage endolysin inhibits its bactericidal activity” (AMB Express, 2011)
